Measurements taken from patent US20250250330A1 (REVOPSIS THERAPEUTICS, published 2025).

Tests used:
[1] = target: T1, His-tagged recombinant human ANG-2 (AcroBiosystems, Cat #AN2-H52H4) (human, UniProt O15123 275-496); assay: ELISA EC50 on rhANG-2, against Faricimab
T1 construct: also called rhANG-2; rhANG-2-His; not shown: His tag
T1 sequence (looked up): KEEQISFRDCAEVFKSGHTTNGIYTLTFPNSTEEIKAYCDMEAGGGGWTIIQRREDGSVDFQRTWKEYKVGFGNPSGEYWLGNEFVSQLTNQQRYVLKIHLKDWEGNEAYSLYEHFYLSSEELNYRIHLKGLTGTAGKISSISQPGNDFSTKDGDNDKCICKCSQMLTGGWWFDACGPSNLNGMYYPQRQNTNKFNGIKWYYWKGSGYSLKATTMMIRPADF
Procedure: Donkey anti-human IgG Fcγ-HRP (Jackson ImmunoResearch Laboratories, Cat #709-035-098) was used for detection and visualized by TMB substrate. OD450 nm readings were measured by Victor 3 with PerkinElmer 1420 Multilabel Counter.

[2] = target: T2, rrVEGF165 (rabbit; Kingfisher Biotech_RP1025U-025) (Rabbit, UniProt P49151 27-190 (pig entry)); assay: ELISA on coated rabbit VEGF-A
T2 construct: Bought protein; also called Rabbit VEGF-A
T2 chain: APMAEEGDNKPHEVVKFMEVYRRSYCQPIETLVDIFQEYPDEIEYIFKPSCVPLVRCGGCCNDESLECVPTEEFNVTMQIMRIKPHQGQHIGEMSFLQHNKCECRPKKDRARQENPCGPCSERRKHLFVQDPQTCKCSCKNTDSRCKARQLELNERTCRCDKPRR

[3] = target: T1, His-tagged recombinant human ANG-2 …; assay: competition ELISA; His-tagged rhANG-2 in solution, competitor coated rhTie-2-Fc
[4] = target: T3, rdANG-2 (canine/dog; Creative Biolab_Vang-3062Lsx) (Canine/Dog, UniProt A0A8J8 19-495, limits assumed); assay: ELISA on coated dog ANG-2
T3 construct: also called Dog ANG-2
T3 sequence (looked up): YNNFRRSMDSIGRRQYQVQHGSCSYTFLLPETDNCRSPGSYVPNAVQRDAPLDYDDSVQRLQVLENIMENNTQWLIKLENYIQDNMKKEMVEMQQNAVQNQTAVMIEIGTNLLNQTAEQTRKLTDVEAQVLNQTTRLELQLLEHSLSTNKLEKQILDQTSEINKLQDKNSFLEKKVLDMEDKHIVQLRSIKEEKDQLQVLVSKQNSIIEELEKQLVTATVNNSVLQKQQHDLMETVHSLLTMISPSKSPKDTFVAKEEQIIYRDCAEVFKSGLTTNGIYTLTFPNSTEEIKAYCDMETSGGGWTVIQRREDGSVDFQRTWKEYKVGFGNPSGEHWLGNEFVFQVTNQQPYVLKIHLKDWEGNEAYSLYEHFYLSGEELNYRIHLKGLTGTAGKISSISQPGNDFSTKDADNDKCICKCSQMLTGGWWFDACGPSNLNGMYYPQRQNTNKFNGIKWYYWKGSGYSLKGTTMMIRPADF

[5] = target: T1, His-tagged recombinant human ANG-2 …; assay: competition ELISA; IC50 ratio against Faricimab for inhibition of ANG-2-Tie-2 binding
[6] = target: T1, His-tagged recombinant human ANG-2 …; assay: ELISA on rhANG-2; biotinylated anti-VpreB antibody and streptavidin-HRP detection; SgG format; anti-VpreB detection
Procedure: SgG1 was diluted in blocking buffer at a starting concentration of 10 nM. Sab and scSv were diluted in blocking buffer at a starting concentration of 100 nM. They were then 1:3 serial diluted.

[7] = target: T4, rhVEGF-B_AcroBio (AcroBio_VE6-H5225) (human, UniProt P49765 22-207); assay: ELISA; target coated at 1 ug/mL, anti-human IgG Fc-HRP detection
T4 construct: Bought protein; not shown: His tag
T4 sequence (looked up): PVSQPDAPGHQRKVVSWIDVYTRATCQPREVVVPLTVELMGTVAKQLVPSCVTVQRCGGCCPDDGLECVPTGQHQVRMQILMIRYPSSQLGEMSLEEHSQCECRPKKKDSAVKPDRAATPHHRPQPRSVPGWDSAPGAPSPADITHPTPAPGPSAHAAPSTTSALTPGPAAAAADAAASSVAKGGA
Procedure: (§1) First, the binding to rhVEGF-B was tested in comparison with rhVEGF₁₆₅. rhVEGF-B or rhVEGF₁₆₅ was used to coat Corning 9017 medium binding plates at 1 μg/mL and […] per well. […] Donkey anti-human IgG Fcγ-HRP was used for detection. OD450 nm readings were measured by Victor 3.

[8] = target: T5, Recombinant human VEGF165 (Peprotech, Cat #100-20) (human, UniProt P15692-4 27-191); assay: as above
T5 construct: Bought protein; also called rhVEGF165; rh VEGF165
Procedure: as §1

[9] = target: T6, rhVEGF-B_Peprotech (Peprotech_100-20B) (human, UniProt P49765-2 22-188); assay: as above
T6 construct: Bought protein
T6 sequence (looked up): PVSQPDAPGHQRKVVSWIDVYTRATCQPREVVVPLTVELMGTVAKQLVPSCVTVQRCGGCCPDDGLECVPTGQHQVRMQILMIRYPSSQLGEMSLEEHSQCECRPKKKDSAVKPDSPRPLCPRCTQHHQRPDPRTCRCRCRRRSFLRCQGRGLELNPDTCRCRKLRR
Procedure: as §1

[10] = target: T7, rpVEGF164 (porcine/pig; AssayGenie_KPRT0149) (Porcine/Pig, UniProt P49151 27-190); assay: ELISA on coated pig VEGF-A
T7 construct: Bought protein; also called Pig VEGF-A
T7 sequence (looked up): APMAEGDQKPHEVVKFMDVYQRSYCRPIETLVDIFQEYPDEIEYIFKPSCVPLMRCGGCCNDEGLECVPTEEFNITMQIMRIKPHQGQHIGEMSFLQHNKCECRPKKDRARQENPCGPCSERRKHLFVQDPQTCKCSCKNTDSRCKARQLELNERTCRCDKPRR

B1: RO-101 VEGF/ANG-2 bispecific surrobody (bispecific antibody, human IgG1, L234A L235A)
heavy 1: not shown
heavy 2: EVQLVESGGGLVKPGGSLRLSCAASGFTFSSYGMHWVRQAPGKGLEWVAGISADSGDKNYADSVKGRFTISRDNAKNSLYLQMNSLRAEDTAVYYCAKEFISWIYTFDYLDYWGQGTLVTVSSASTKGPSVFPLAPSSKSTSGGTAALGCLVKDYFPEPVTVSWNSGALTSGVHTFPAVLQSSGLYSLSSVVTVPSSSLGTQTYICNVNHKPSNTKVDKKVEPKSCDKTHTCPPCPAPEAAGGPSVFLFPPKPKDTLMISRTPEVTCVVVDVSHEDPEVKFNWYVDGVEVHNAKTKPREEQYNSTYRVVSVLTVLHQDWLNGKEYKCKVSNKALPAPIEKTISKAKGQPREPQVCTLPPSRDELTKNQVSLSCAVKGFYPSDIAVEWESNGQPENNYKTTPPVLDSDGSFFLVSKLTVDKSRWQQGNVFSCSVMHEALHNHYTQKSLSLSPG
light: QPVLHQPPAMSSALGTTIRLTCTLRNDHDIGVYSVYWYQQRPGHPPRFLLRYFSQSDKSQGPQVPPRFSGSKDVARNRGYLSISELQPEDEAMYYCAMGARSSVTHVFGSGTQLTVLSQPKATPSVTLFPPSSEELQANKATLVCLMNDFYPGILTVTWKADGTPITQGVEMTTPSKQSNNKYAASSYLSLTPEQWRSRRSYSCQVMHEGSTVEKTVAPAECS
notes: Format SgG1; also called Sample 1
- RO-101/Faricimab Fold [1]: 53 fold
- EC50 [2]: 0.0334 nM
- IC50 [3]: 0.787 nM
- EC50 [4]: 0.0135 nM
- Fold [5]: 17.2 fold
- EC50 [6]: 0.0257 nM
- EC50 [7]: > 100 nM
- EC50 [8]: 0.0165 nM
- EC50 [9]: > 100 nM
- EC50 [10]: 0.0198 nM
